For this assay, the target named is native human thyroglobulin (human) (UniProt P01266). Kind of assay: cryo-EM structure; hTG at 2 mg/mL in 25 mM Tris-HCl pH 7.5, 150 mM NaCl, sodium azide; plunge frozen; C2 symmetry imposed; composite map at 3.2 Å.

The stoichiometry N is a count of units in the complex or per binding partner.

“native human thyroglobulin, P01266 20-2768” registered a stoichiometry N of 2.

For the origin of these results see PMC8748809.
